Measurements from the nanobody polyreactivity screen of Harvey et al. (2022).

Experiment: yeast display, Sf9 membrane polyspecificity reagent, FACS + sequencing; frameworks hold sequencing errors
In short: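 Galactose induction of a Saccharomyces cerevisiae BJ5465 synthetic nanobody display library ran 36–48 hours. The cells were then stained for 1 hour at 4 °C with 10% biotinylated, detergent-solubilized Sf9 membrane reagent, pulled down on streptavidin microbeads and FACS-sorted into low and high (top ~1%) gates on expression and reagent-binding fluorescence. Labels for polyreactivity follow the gate of origin.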

Sequence	polyreactivity (PSR sort gate)
QVQLVESGGGLVQAGGSLLLSCAASGRIFDLNAMGWYRQAPGKERELVAAITNTGSTNYADSVKGRFTISRDNAKNTVYLQMNSLKPEDTAVYYCARTYWLRYYGYRDDEYDYWGQGTQVTVSS	low polyreactivity
QVQLVESGGGLVQAGGSLLLSCAASGRIFRSYTMGWYRQAPGKERELVAAITSYGGRTYYADSVKGRFTISRDNAKNTVYLQMNRLKPEDTAVYYCAAHLSRDKFDYWGQGTQVTVSS	low polyreactivity
QVQLVESGGGLVQAGGSLLLSCAASGRIFSYNAMGWYRQAPGKERELVAVISRSDTSTYYADSVKGRFTISRDNAKNTVYLQMNSLKPEDTAVYYCNADGPSYFRYSGYYYWGQGTQVTVSS	low polyreactivity
QVQLVESGGGLVQAGGSLLLSCAASGRIFYRYAMGWYRQAPGKERELVAAISRGGSTYYADSVKGRYTISRDNAKNTVYLQMNSLKPEDTAVYYCAKDGYWGYDYWGQGTQVTVSS	high polyreactivity
QVQLVESGGGLVQAGGSLLLSCAASGRTFRPYSMGWYRQAPGKERELVAAITRSGGSTYYADSVKGRFTISRDNEKNTVYLQMNSLKPEDTAVYYCAAYNTYSDTYDYWGQGTQVTVSS	low polyreactivity
QVQLVESGGGLVQAGGSLLLSCAASGRTLGKYAMGWYRQAPGKERELVAAISSGGGSTYYSDSVKGRFTISRDNAKNTVYLLMNSLKPEDTAVYYCAADSVSRYNGYDYWGQGTQVTVSS	high polyreactivity
QVQLVESGGGLVQAGGSLLLSCAASGSIFIYYTIGWYRQARGKARELVAAITRSGGDTYYADSVKGRFTISRDNAKNTVYLQMNSLKPEDTAVYYCAADSWLRYGTYEYWGQGTQVTVSS	high polyreactivity
QVQLVESGGGLVQAGGSLLLSCAASGSIFRYYAMGWSRQAPGKERELVAAISSNGASTYYADSVKGRFTISRDNAKNTVYLQKNSLKPEVSGVYYCAARFRRAPGYYWGQGTQVTVSS	high polyreactivity
QVQLVESGGGLVQAGGSLLLSCAASGSIFYRYAMGWDRQAPGKERELVAAISWNGGTTYYADSVKGRFTISRDNAKNTVYLQMNSLKPEDTAVYYCAADRPTSVYLFDYWGQGTLVTVSS	high polyreactivity
QVQLVESGGGLVQAGGSLLLSCAASGSIFYYYAMGWYRQAPGKERELVAAISKSGGSTYADSVKGRFTISRDNAKNTVYLQMNSLKPEDTAVYYCAKEFKYWGYPYDYWGQGTQVTVSS	low polyreactivity
QVQLVESGGGLVQAGGSLLLSCAASGSILRMYVMGWYRQAPGKESELVADRSDRGGSTYYADSVKGRFTISRDNAKNTVYLQMNSLKPEDTAVYYCAKDSETAGATYTEYDYWGQGTQVTVSS	low polyreactivity
QVQLVESGGGLVQAGGSLLLSCAASGSTFISYAMGWYRQAPGKERELVAAITWRGGSTYNADSVKGRFTISRDNAKNTVYLQMNSMKPEDTAVYYCAAEFYYYYGRYDYWGQGTQVTVSS	high polyreactivity
QVQLVESGGGLVQAGGSLLLSCAASGTTSLVNAMGSYRQAPGKERELVAAISWSGGSTYYADSVKGRFTISRANAKNTVFLQRNSLKPEDTAVYYCAAESYGYWEYDYWGQGTQVTLSS	high polyreactivity
QVQLVESGGGLVQAGGSLLLSSAASGINFGNYAMGWYRQAPGKERELVATIDSAGSPYYADSVNGRFTISRDNAKNTVYLQMNSLKPEDTAVYYCAVRFGTYGRYFGYDYWGQGTQVTVSS	high polyreactivity
QVQLVESGGGLVQAGGSLLLTCAASGIIFVIYAMGWYRQAPGKERELVAAITSDGSTSYADSVKGRFTISRDNAKNTVYLQMNSLKPEDTAVYYCAKDFFEHSPVSHTYSSSKYDYWGQGTQVTVSS	low polyreactivity
QVQLVESGGGLVQAGGSLPLICAASGSTSVVNAMGWYRQAHGKERELVATIPRVGRTYYADSVKGRFTISRDNAKNTVYLQMNSLKPEDTAVYYCASRLVGRSYKYDYWGQGTQVTVSS	high polyreactivity
QVQLVESGGGLVQAGGSLPLSCAASGFIFYRYTMGWYRQAPGKERELVAAITRNGVSTYYADSVKGRFTISRDNAKNTVYLQMNSLKPEDTAVYYCAAQRYRTGDSWGQGTQVTVSS	high polyreactivity
